Data as given in article PMC9127447.

Target: His-tagged dynamin 2b (dynamin 2-WT, baculovirus) (rat)
Experiment: not stated; polymerization of recombinant (baculovirus) dynamin 2 with or without Bis-T-23; method in Supplementary Figures S2E, F

B1: His-tagged dynamin 2b (dynamin 2-WT, baculovirus) (enzyme)
chain: MGNRGMEELIPLVNKLQDAFSSIGQSCHLDLPQIAVVGGQSAGKSSVLENFVGRDFLPRGSGIVTRRPLILQLIFSKTEYAEFLHCKSKKFTDFDEVRQEIEAETDRVTGTNKGISPVPINLRVYSPHVLNLTLIDLPGITKVPVGDQPPDIEYQIKDMILQFISRESSLILAVTPANMDLANSDALKLAKEVDPQGLRTIGVITKLDLMDEGTDARDVLENKLLPLRRGYIGVVNRSQKDIEGRKDIRAALAAERKFFLSHPAYRHMADRMGTPHLQKTLNQQLTNHIRESLPTLRSKLQSQLLSLEKEVEEYKNFRPDDPTRKTKALLQMVQQFGVDFEKRIEGSGDQVDTLELSGGARINRIFHERFPFELVKMEFDEKDLRREISYAIKNIHGVRTGLFTPDMAFEAIVKKQLVKLKEPSLKCVDLVVSELATVIKKCAEKLSSYPRLREETERIVTTYIREREGRTKDQILLLIDIEQSYINTNHEDFIGFANAQQRSTQLNKKRAIPNQGEILVIRRGWLTINNISLMKGGSKEYWFVLTAESLSWYKDEEEKEKKYMLPLDNLKIRDVEKGFMSNKHVFAIFNTEQRNVYKDLRQIELACDSQEDVDSWKASFLRAGVYPEKDQAENEDGAQENTFSMDPQLERQVETIRNLVDSYVAIINKSIRDLMPKTIMHLMINNTKAFIHHELLAYLYSSADQSSLMEESAEQAQRRDDMLRMYHALKEALNIIGDISTSTVSTPVPPPVDDTWLQNTSSHSPTPQRRPVSSVHPPGRPPAVRGPTPGPPLIPMPVGATSSFSAPPIPSRPGPQNVFANNDPFSAPPQIPSRPARIPPGIPPGVPSRRAPAAPSRPTIIRPAEPSLLD
modifications: not checked
**Q.** Which fold increase of polymerization with Bis-T-23 against without Bis-T-23 does the source give for B1 here?
**A.** The fold increase of polymerization with Bis-T-23 against without Bis-T-23 was 30 times.
